Results from PMC9352680, “A comprehensive thermodynamic model for RNA binding by the Saccharomyces cerevisiae Pumilio protein PUF4”.

T1: PUF4 RNA-binding domain (Saccharomyces cerevisiae, UniProt P25339 537-888)
T1 sequence: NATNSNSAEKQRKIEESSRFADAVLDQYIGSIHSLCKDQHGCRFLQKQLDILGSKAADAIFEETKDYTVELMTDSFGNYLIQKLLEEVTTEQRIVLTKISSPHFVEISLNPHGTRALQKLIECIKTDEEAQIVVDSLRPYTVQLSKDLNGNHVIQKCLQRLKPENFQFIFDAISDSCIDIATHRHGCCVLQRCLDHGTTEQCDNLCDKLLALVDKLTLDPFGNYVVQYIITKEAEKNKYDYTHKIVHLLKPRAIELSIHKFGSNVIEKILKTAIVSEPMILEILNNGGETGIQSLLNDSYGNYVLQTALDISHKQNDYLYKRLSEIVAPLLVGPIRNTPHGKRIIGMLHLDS


Target: T1, PUF4 RNA-binding domain
Experiment: Mg; RNA-MaP; 20 mM Na-HEPES pH 7.4, 30 mM KOAc, 0.75 mM MgCl2, 0.1% Tween-20, 5% glycerol, 0.1 mg/mL BSA, 2 mM DTT; 25 C; 0.0125-409.6 nM protein
Conditions: tags: N-His6-TEV cleaved; C-SNAP kept, Cy3B-labelled; label: tethered on chip by stalled RNA polymerase

Binder | Kd
UCUCUUUAACACUUAUUAUAUCUCUU (ssRNA) [Id_ii_S1_P5E.4_K5.3_C5.2_[C-2T]_[T-1A]_H5.3_A5.1_F5.1_T5.2] | > 2300 nM
UCUCUUAGACACUUAUUAACUCUCUU (ssRNA) [Id_ii_S1_P5E.4_K5.3_C5.2_[C-2A]_[T-1G]_H5.3_A5.1_F5.1_T5.2_[T11A]_[A12C]] | > 2300 nM
UCUCUUUGUAUUAUCGUCUCUU (ssRNA) [Ib_S1_P5E.1_K5.1_C5.1_H5.1_A5.1_F5.1_[T9C]_[A10G]_T5.1] | 30.6 nM
UCUCUUUUACACUUAUUACCUCUCUU (ssRNA) [Id_ii_S1_P5E.4_K5.3_C5.2_[C-2T]_H5.3_A5.1_F5.1_T5.2_[T11C]_[A12C]] | > 2300 nM
UCUCUUAAACACUUAUUACGUCUCUU (ssRNA) [Id_ii_S1_P5E.4_K5.3_C5.2_[C-2A]_[T-1A]_H5.3_A5.1_F5.1_T5.2_[T11C]_[A12G]] | > 2300 nM
UCUCUUAUACACUUAUUAUCUCUCUU (ssRNA) [Id_ii_S1_P5E.4_K5.3_C5.2_[C-2A]_H5.3_A5.1_F5.1_T5.2_[A12C]] | 435 nM
UCUCUUUAACACUUAUUAAUUCUCUU (ssRNA) [Id_ii_S1_P5E.4_K5.3_C5.2_[C-2T]_[T-1A]_H5.3_A5.1_F5.1_T5.2_[T11A]_[A12T]] | > 2300 nM
UCUCUUAUACACUUAUUAAAUCUCUU (ssRNA) [Id_ii_S1_P5E.4_K5.3_C5.2_[C-2A]_H5.3_A5.1_F5.1_T5.2_[T11A]] | 744 nM
UCUCUUUAACACUUAUUAUUUCUCUU (ssRNA) [Id_ii_S1_P5E.4_K5.3_C5.2_[C-2T]_[T-1A]_H5.3_A5.1_F5.1_T5.2_[A12T]] | > 2300 nM
UCUCUUUUACACUUAUUAACUCUCUU (ssRNA) [Id_ii_S1_P5E.4_K5.3_C5.2_[C-2T]_H5.3_A5.1_F5.1_T5.2_[T11A]_[A12C]] | > 2300 nM
UCUCUUACACACUUAUUAGCUCUCUU (ssRNA) [Id_ii_S1_P5E.4_K5.3_C5.2_[C-2A]_[T-1C]_H5.3_A5.1_F5.1_T5.2_[T11G]_[A12C]] | > 2300 nM
UCUCUUCGACACUUAUUAAAUCUCUU (ssRNA) [Id_ii_S1_P5E.4_K5.3_C5.2_[T-1G]_H5.3_A5.1_F5.1_T5.2_[T11A]] | > 2300 nM
UCUCUUUGUAUUAUCCUCUCUU (ssRNA) [Ib_S1_P5E.1_K5.1_C5.1_H5.1_A5.1_F5.1_[T9C]_[A10C]_T5.1] | 26.8 nM
UCUCUUCCACACUUAUUACUUCUCUU (ssRNA) [Id_ii_S1_P5E.4_K5.3_C5.2_[T-1C]_H5.3_A5.1_F5.1_T5.2_[T11C]_[A12T]] | > 2300 nM
UCUCUUCCACACUUAUUACGUCUCUU (ssRNA) [Id_ii_S1_P5E.4_K5.3_C5.2_[T-1C]_H5.3_A5.1_F5.1_T5.2_[T11C]_[A12G]] | > 2300 nM
UCUCUUAUACACUUAUUAUUUCUCUU (ssRNA) [Id_ii_S1_P5E.4_K5.3_C5.2_[C-2A]_H5.3_A5.1_F5.1_T5.2_[A12T]] | 517 nM

Binder | Kd
UCUCUUUUACACUUAUUAUAUCUCUU (ssRNA) [Id_ii_S1_P5E.4_K5.3_C5.2_[C-2T]_H5.3_A5.1_F5.1_T5.2] | > 2300 nM
UCUCUUAAACACUUAUUACCUCUCUU (ssRNA) [Id_ii_S1_P5E.4_K5.3_C5.2_[C-2A]_[T-1A]_H5.3_A5.1_F5.1_T5.2_[T11C]_[A12C]] | > 2300 nM
UCUCUUAUACACUUAUUAACUCUCUU (ssRNA) [Id_ii_S1_P5E.4_K5.3_C5.2_[C-2A]_H5.3_A5.1_F5.1_T5.2_[T11A]_[A12C]] | 464 nM
UCUCUUAUACACUUAUUACGUCUCUU (ssRNA) [Id_ii_S1_P5E.4_K5.3_C5.2_[C-2A]_H5.3_A5.1_F5.1_T5.2_[T11C]_[A12G]] | 907 nM
UCUCUUCGACACUUAUUAAUUCUCUU (ssRNA) [Id_ii_S1_P5E.4_K5.3_C5.2_[T-1G]_H5.3_A5.1_F5.1_T5.2_[T11A]_[A12T]] | > 2300 nM
UCUCUUUGUAUUAUGUUCUCUU (ssRNA) [Ib_S1_P5E.1_K5.1_C5.1_H5.1_A5.1_F5.1_[T9G]_[A10T]_T5.1] | 10.8 nM
UCUCUUACACACUUAUUAUAUCUCUU (ssRNA) [Id_ii_S1_P5E.4_K5.3_C5.2_[C-2A]_[T-1C]_H5.3_A5.1_F5.1_T5.2] | > 2300 nM
UCUCUUAGACACUUAUUACAUCUCUU (ssRNA) [Id_ii_S1_P5E.4_K5.3_C5.2_[C-2A]_[T-1G]_H5.3_A5.1_F5.1_T5.2_[T11C]] | > 2300 nM
UCUCUUAGACACUUAUUAAAUCUCUU (ssRNA) [Id_ii_S1_P5E.4_K5.3_C5.2_[C-2A]_[T-1G]_H5.3_A5.1_F5.1_T5.2_[T11A]] | > 2300 nM
UCUCUUCCACACUUAUUAACUCUCUU (ssRNA) [Id_ii_S1_P5E.4_K5.3_C5.2_[T-1C]_H5.3_A5.1_F5.1_T5.2_[T11A]_[A12C]] | > 2300 nM
UCUCUUUUACACUUAUUAAAUCUCUU (ssRNA) [Id_ii_S1_P5E.4_K5.3_C5.2_[C-2T]_H5.3_A5.1_F5.1_T5.2_[T11A]] | > 2300 nM
UCUCUUCGACACUUAUUACUUCUCUU (ssRNA) [Id_ii_S1_P5E.4_K5.3_C5.2_[T-1G]_H5.3_A5.1_F5.1_T5.2_[T11C]_[A12T]] | > 2300 nM
UCUCUUACACACUUAUUACCUCUCUU (ssRNA) [Id_ii_S1_P5E.4_K5.3_C5.2_[C-2A]_[T-1C]_H5.3_A5.1_F5.1_T5.2_[T11C]_[A12C]] | > 2300 nM
UCUCUUAGACACUUAUUACCUCUCUU (ssRNA) [Id_ii_S1_P5E.4_K5.3_C5.2_[C-2A]_[T-1G]_H5.3_A5.1_F5.1_T5.2_[T11C]_[A12C]] | > 2300 nM
UCUCUUAUACACUUAUUAAUUCUCUU (ssRNA) [Id_ii_S1_P5E.4_K5.3_C5.2_[C-2A]_H5.3_A5.1_F5.1_T5.2_[T11A]_[A12T]] | 517 nM
